According to article doi:10.1101/2022.09.13.507756 (bioRxiv, 2022):

Assays:
[1] = biological target: the molecule itself; assay: SEC + SEC-MALS
[2] = biological target: the molecule itself; assay: SEC

B1: Cyclohexadienyl dehydratase from Pseudomonas aeruginosa (PaCDT) (enzyme, UniProt Q01269 26-268, looked up)
chain: QESRLDRILESGVLRVATTGDYKPFSYRTEEGGYAGFDVDMAQRLAESLGAKLVVVPTSWPNLMRDFADDRFDIAMSGISINLERQRQAYFSIPYLRDGKTPITLCSEEARFQTLEQIDQPGVTAIVNPGGTNEKFARANLKKARILVHPDNVTIFQQIVDGKADLMMTDAIEARLQSRLHPELCAVHPQQPFDFAEKAYLLPRDEAFKRYVDQWLHIAEQSGLLRQRMEHWLEYRWPTAHGK
stoichiometry N [1]: 3

B2: Ws0279 (natural protein, UniProt Q7MAG0 24-258, looked up)
chain: QKSTLNEIIKRGELRVGLEPGYLPFEMKDKKGNVIGFDVDLAREMAKAMGVKLKLVPTSWDGLIPGLVTEKFDIIISGMTISQERNLRVNFVEPYIVVGQSLLVKKGLEKGVKSYKDLDKPELTLVTKFGVSAEYAAKRLFKNAKLKTYDTEAEAVQEVLNGKADMFIFDLPFNVAFMAQKGQGYLVHLDTSLTYEPLGWAIKKGDPDFLNWLNHFLAQIKHDGSYDELYERWFV
stoichiometry N [2]: 3

B3: PaCDTΔC (enzyme, Pseudomonas aeruginosa, UniProt Q01269 26-259, looked up)
chain: QESRLDRILESGVLRVATTGDYKPFSYRTEEGGYAGFDVDMAQRLAESLGAKLVVVPTSWPNLMRDFADDRFDIAMSGISINLERQRQAYFSIPYLRDGKTPITLCSEEARFQTLEQIDQPGVTAIVNPGGTNEKFARANLKKARILVHPDNVTIFQQIVDGKADLMMTDAIEARLQSRLHPELCAVHPQQPFDFAEKAYLLPRDEAFKRYVDQWLHIAEQSGLLRQRMEHWLE
stoichiometry N [2]: 3
